The results in this text go back to PMC5323315 (Molecular microbiology, 2017).

This experiment has as its target T1, DnaAΔC with a C-terminal hexa-histidine tag (B. subtilis, UniProt P05648 1-355).
T1 sequence (looked up): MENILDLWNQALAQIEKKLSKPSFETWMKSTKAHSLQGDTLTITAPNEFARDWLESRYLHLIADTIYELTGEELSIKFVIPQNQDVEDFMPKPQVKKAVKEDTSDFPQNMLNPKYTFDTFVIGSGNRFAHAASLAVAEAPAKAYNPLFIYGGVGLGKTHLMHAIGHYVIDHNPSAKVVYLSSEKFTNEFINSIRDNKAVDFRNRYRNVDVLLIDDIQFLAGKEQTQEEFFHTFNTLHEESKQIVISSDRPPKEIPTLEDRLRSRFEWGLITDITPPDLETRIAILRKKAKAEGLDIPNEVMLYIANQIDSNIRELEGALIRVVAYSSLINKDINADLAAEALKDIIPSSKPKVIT
Kind of experiment: native gel or EMSA.

B1: Rok with a C-terminal hexa-histidine tag (natural protein, B. subtilis, UniProt O34857 1-191, looked up)
chain: MFNEREALRLRLEQLNEAEVKVIREYQIERDKIYAKLRELDRNGSPSEIKKDFRSEKKPDSLPVLAELAAQEIRSYQPQSQQQSVQPQLQSISSLPAGIPDGTTRRRRGTARPGSKAAKLREAAIKTLKRHNAAIKSSELQKEIEKESGLEIPNMTTFMQSLIKMYPEVKKPYRGQYILEGEIESAESANE
As to B1, the binding result is recorded as “binds”.
